Patent US20080267971A1 (published 2008)
Changes are numbered by the printed parent chain.

T1: human Angiopoietin-2 (human, UniProt O15123 19-496)
T1 construct: Mostly bought recombinant protein (R&D Systems 623-AM/CF, 623-AN; biotinylated BT623) or supernatant of transfected 293F cells; also called Ang-2; rhAng-2
T1 sequence: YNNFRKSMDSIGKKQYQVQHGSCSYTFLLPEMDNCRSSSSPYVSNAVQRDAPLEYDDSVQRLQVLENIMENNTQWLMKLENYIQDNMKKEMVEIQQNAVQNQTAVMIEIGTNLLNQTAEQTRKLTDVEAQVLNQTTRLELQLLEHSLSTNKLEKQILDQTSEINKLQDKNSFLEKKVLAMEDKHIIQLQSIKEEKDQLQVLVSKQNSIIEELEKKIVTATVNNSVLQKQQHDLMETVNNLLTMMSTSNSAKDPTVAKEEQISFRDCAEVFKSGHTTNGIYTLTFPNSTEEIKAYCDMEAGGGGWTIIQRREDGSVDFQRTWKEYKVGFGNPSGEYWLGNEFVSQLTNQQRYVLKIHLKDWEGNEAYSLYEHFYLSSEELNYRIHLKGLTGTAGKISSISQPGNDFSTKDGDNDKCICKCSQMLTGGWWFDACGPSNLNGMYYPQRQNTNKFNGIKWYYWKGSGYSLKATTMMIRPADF

T2: mouse Angiopoietin-2 (mouse, UniProt O35608 19-496)
T2 construct: Used as conditioned medium of transfectants; also called mAng-2; mouse Ang-2
T2 sequence: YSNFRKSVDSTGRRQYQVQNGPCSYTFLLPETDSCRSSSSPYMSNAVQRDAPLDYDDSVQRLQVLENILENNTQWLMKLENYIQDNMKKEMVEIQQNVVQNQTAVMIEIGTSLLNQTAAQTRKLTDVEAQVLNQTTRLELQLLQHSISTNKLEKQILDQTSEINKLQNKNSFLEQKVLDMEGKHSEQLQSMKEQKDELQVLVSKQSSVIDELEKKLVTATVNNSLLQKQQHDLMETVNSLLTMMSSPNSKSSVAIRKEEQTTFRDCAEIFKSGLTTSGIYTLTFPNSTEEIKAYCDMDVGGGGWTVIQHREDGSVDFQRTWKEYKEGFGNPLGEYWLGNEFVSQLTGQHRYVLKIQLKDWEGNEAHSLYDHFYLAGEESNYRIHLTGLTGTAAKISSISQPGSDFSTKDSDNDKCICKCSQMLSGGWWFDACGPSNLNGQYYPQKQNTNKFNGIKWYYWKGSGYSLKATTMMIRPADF

B1: mAb 5.52.1 (antibody, V domains shown)
VH: QVQLVESGGGVVQPGRSLRLSCAASGFTFSSYGMHWVRQAPGKGLEWVAVRWYDESNKYYADSVKGRFTISRDNSKNTLYLQMNSLRAEDTAVYYCARDPFETGTTFDYWGQGTLVTVSS
VL: DIQMTQSPSSVSASVGDRVTITCRASQGISSWLAWYQQKPGKAPKLLIYAVSSLESGVPSRFSGSGSGTDFTLTISSLQPEDFATYYCQQALTFGGGTKVEIKR
notes: Human hybridoma IgG (XenoMouse); the line 5.52 has entries of its own (347, 349; light chain L2) that differ from the clone 5.52.1 (L5); also called x5.52
B2: mAb 3.19.3 (antibody, V domains shown)
VH: QVQLVESGGGVVQPGRSLRLSCAASGFTFTNYGMHWGRQAPGKGLEWVAVISHDGNNKYYVDSVKGRFTISRDNSKNTLYLQMNSLRAEDTAVYYCAREGIDFWSGLNWFDPWGQGTLVTVSS
VL: EIVLTQSPGTLSLSPGERATLSCRASQSITGSYLAWYQQKPGQAPRLLICGASSWATGIPDRFSGSGSGTDFTLTISRLEPEDFAVYYCQQYSSSPITFGQGTRLEIKR
notes: Human hybridoma IgG (XenoMouse); also called x3.19
B3: mAb 5.28.1 (antibody, V domains shown)
VH: EVQLVESGGIVVQPGGSLRLSCAASGFTFDDYTMHWVRQTPGKGLEWVSLISWDGGSTYYADSVKGRFTISRDNSKNSLYLQMNSLRTEDTALYYCAKDIDIAVAGTGFDHWGQGTLVTVSS
VL: EIVMTQSPATLSVSPGERATLSCRASQSVTSNLAWYQQKPGQAPRLLIYGALIRATGIPARFSGSGSGTEFTLTISSLQSEDFAVYYCQQYNNWPFTFGPGTKVDIKR
notes: Human hybridoma IgG (XenoMouse); also called x5.28
B4: mAb 5.86.1 (antibody, V domains shown)
VH: QVQLVQSGAEVKKPGASVKVSCKASGYTFTGYHMYWVRQAPGQGLEWLGWINPNSGGTNYAQKFQGRVTMTRDTSISTAYMELSRLRSDDTAVYYCVRDQGIAAAGPFDYWCQGTLVTVSS
VL: DIRMTQSPSSLSASVGDRVTITCRASQRISTYLNWYQQKPGKAPKFLIYAASSLQSGVPSRFSGSGSGTDFTLTISSLQPEDFATYYCQQSYTTPFTFGPGTKVDIKR
notes: Human hybridoma IgG (XenoMouse); also called x5.86
B5: mAb 5.103.1 (antibody, V domains shown)
VH: B4 VH with H33Y, M34L, R38P, L48M, N52S, V97A, G101V, A104V, C112A
VL: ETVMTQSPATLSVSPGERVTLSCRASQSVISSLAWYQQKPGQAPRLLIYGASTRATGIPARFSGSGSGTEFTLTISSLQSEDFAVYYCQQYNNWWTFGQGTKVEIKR
notes: Human hybridoma IgG (XenoMouse); also called 5.103.3; x5.103
B6: mAb 5.101.1 (antibody, V domains shown)
VH: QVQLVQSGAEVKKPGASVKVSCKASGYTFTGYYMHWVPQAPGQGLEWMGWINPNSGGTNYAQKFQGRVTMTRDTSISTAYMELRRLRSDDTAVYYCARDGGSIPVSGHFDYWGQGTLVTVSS
VL: EIVMTQSPATLSVSPGERATLSCRASQSLISNLAWYQQKPGQAPRLLIFGASTRATGIPARFSGSGSGTEFTLTISSLQSEDFAVYYCHQYNNWWTFGQGTKVEIKR
notes: Human hybridoma IgG (XenoMouse); also called x5.101
B7: mAb 5.88.3 (antibody, V domains shown)
VH: EVQMVESGGGLVQPGGSLRLSCAASGFTLRSYWMSWVRQAPGKGLEWVANIKEDGSEKYHVDSVKGRFTISRDNAENSLFLQMSSLRAEDTAVYYCARDMEASAGLFDYWGQGTLVTVSS
VL: B6 VL with T20I, L29I, I30S, F49Y, H89Q, N93Y
notes: Human hybridoma IgG (XenoMouse); also called x5.88
B8: mAb 3.31.2 (antibody, V domains shown)
VH: EVQLVESGGGLVQPGGSLRLSCAASGFTFSSYWMSWVRQAPGKGLEWVANIKQDGSDKYYVDSVKGRFTISRDNAKNSLYLRMNSLRAEDTAVFYCARDMGSGWFDYWGQGTLVTVSS
VL: B6 VL with I2V, L29V, I30G, F49Y, Y87C, H89Q, N93H
notes: Human hybridoma IgG (XenoMouse); also called x3.31
B9: mAb 3.3.2 (antibody, V domains shown)
VH: EVQLVESGGGLVQPGGSLRLSCAVSGFTFSSYWMSWVRQAPGKGLEWVANIKQDGSEKYYVDSVKGRFTISRDNAKNSLYLQMNSLRAEDTAVYYCARDQGIAVAGPFDYWGQGTLVTVSS
VL: B6 VL with S28T, L29V, I30S, N32D, F49Y, T53I, Y87S, H89Q, N92Y
notes: Human hybridoma IgG (XenoMouse); also called 3.3.1; x3.3

What follows are binders tested against T1, human Angiopoietin-2 (assay: Biacore; kd held constant (*); kd held constant in the fit, not measured).
Procedure: The label-free surface plasmon resonance (SPR), or Biacore, was utilized to measure the antibody affinity to the antigen. For this purpose, a high-density goat anti-human antibody surface over a CM5 Biacore chip was prepared using routine amine coupling. All the purified mAbs were diluted to approximately 8 μg/ml in HBS-P running buffer containing 100 μg/ml BSA and 10 mg/mL carboxymethyldextran. Each mAb was captured on a separate surface using a 42-second contact time, and a 5-minute wash for stabilization of the mAb baseline.
Data were fit globally to a 1:1 interaction model to determine the binding kinetics.

**Q.** For B1, which koff is on record?
**A.** Its koff is no more than 1e-05 s⁻¹.

These binders were tested against T1, human Angiopoietin-2 (assay: high resolution Biacore, mAb immobilized, 1st experiment).
Procedure: The mAb was then immobilized on flow cells 1-3 (CM5 Biacore chip) using routine amine coupling, leaving flow cell 4 as the reference flow cell.
The antibody surfaces were regenerated with a 6-second pulse of 15 mM NaOH after each injection cycle.
The sample injections alternated with three blank injection cycles. Each surface was regenerated with a 6-second pulse of 15 mM NaOH after each long off-rate injection cycle.

**Q.** How did the Kd turn out when B2 was run?
**A.** The Kd was 5.3 pM.

**Q.** What about the kon of the same binder?
**A.** The kon was 189000 M⁻¹ s⁻¹.

These binders were tested against T2, mouse Angiopoietin-2 (assay: ELISA on plates coated with conditioned medium of HEK293F/mouse Ang-2 transfectants, mAb titrated, detection with anti-human Fc-HRP).
Procedure: The plates were incubated at 4° C. overnight, followed by washing four times using Phosphate Buffer Saline with a Skan Washer 300 station (SKATRON). The wells were blocked by 100 μl of ABX-block buffer (0.5% BSA, 0.1% Tween, 0.01% Thimerosal in PBS) for 1 hour. […] The mAbs and each of their dilutes were tested in duplicate. After washing twice, the bound mAbs were detected by goat anti-human Fc-HPPO-conjugated antibody (Caltag, Code H10507) at 1/1,000 dilution at room temperature for an hour. To set up the detecting chromagenic reaction, 100 μl of TMB substrate (TMB-microwell, BioFX, Cat. No. TMSK-1000-01) was added after washing the wells three times using PBS. The plates were incubated for 30 minutes before 650 stop solution (100 μl/well, BioFX, Cat. No. BSTP-0100-01) was added to terminate the reaction. The light absorbance at […] was determined by a Spectramax Plus reader.

**Q.** How did the “EC50 (read off the curve)” value turn out when B2 was run?
**A.** Its value is roughly 1 µg/mL.

**Q.** Does B3 bind?
**A.** Result: no binding (tested: 100 µg/ml)

What follows are binders tested against T1, human Angiopoietin-2 (assay: cell-based or functional assay).

**Q.** With B2 as the binder, how does the “EC50, inhibition of Ang-2-induced Tie2 phosphorylation (HEK293F/Tie2, ELISA)” value (“EC50, inhibition … (HEK293F/Tie2, ELISA)” for short) read?
**A.** Its value is 0.006 µg/mL.

**Q.** How did the “EC50, inhibition … (HEK293F/Tie2, ELISA)” value turn out when B4 was run?
**A.** Its value is 0.008 µg/mL.

**Q.** How did the “EC50, inhibition … (HEK293F/Tie2, ELISA)” value turn out when B5 was run?
**A.** Its value is 0.095 µg/mL.

**Q.** How did the “EC50, inhibition … (HEK293F/Tie2, ELISA)” value turn out when B6 was run?
**A.** The value was 0.733 µg/mL.

**Q.** With B7 as the binder, how does the “EC50, inhibition … (HEK293F/Tie2, ELISA)” value read?
**A.** The value was 0.016 µg/mL.

**Q.** For B8, which “EC50, inhibition … (HEK293F/Tie2, ELISA)” value is on record?
**A.** Its value is 0.043 µg/mL.

**Q.** For B9, which “EC50, inhibition … (HEK293F/Tie2, ELISA)” value is on record?
**A.** Its value is 0.046 µg/mL.

Each binder was assayed against T1, human Angiopoietin-2 (assay: competition ELISA: biotin-Ang-2 on coated Tie2/Fc).
Procedure: 96-well Nunc Immplates™ were coated with 100 μl of recombinant human Tie2/Fc fusion protein (R&D Systems, Inc., Cat. No. 313-TI-100) at 4 μg/ml by incubating overnight at 4° C. The plates were washed four times using Phosphate Buffer Saline (PBS) with a Skan™ Washer 300 station (SKATRON). The wells were blocked by 100 μl of ABX-blocking buffer (0.5% BSA, 0.1% Tween, 0.01% Thimerosal in PBS) for 1 hour.
The plates were incubated at room temperature for two hours before the unbound molecules were washed off. […] After washing twice, the bound Streptavidin was detected by HRP substrate (R&D Systems, Cat. No. DY998). The plates were incubated for 30 minutes before 450 stop solution (100 μl/well, BioFX, Cat# BSTP-0100-01) was added to terminate the reaction. The light absorbance at 450 nm was determined by a Spectramax Plus reader.
Each concentration of the mAb was tested in duplicate. The concentration-response relationship was found by curve fitting using Graphpad Prism™ graphic software (non-linear, Sigmoid curve). The maximal inhibition (efficacy) and IC₅₀ (potency) were calculated by the software.

**Q.** B2 was tested. Which EC50 did it give?
**A.** Its EC50 is 0.798 µg/mL.

**Q.** And the “Efficacy (ratio of bound Ang-2 with mAb 30 µg/ml versus without)” value?
**A.** The value was 0.395 ratio.

**Q.** What does the source list for B3?
**A.** EC50: 2.7 µg/mL; Efficacy (ratio of bound Ang-2 with mAb 30 µg/ml versus without): 0.389 ratio

**Q.** For B4, which EC50 is on record?
**A.** The EC50 was 0.133 µg/mL.

**Q.** And the “Efficacy (ratio of bound Ang-2 with mAb 30 µg/ml versus without)” value?
**A.** The value was 0.384 ratio.

**Q.** Which results are given for B5?
**A.** EC50: 0.364 µg/mL; Efficacy (ratio of bound Ang-2 with mAb 30 µg/ml versus without): 0.232 ratio

**Q.** Which EC50 does the source give for B6 here?
**A.** The EC50 was 0.376 µg/mL.

**Q.** What about the “Efficacy (ratio of bound Ang-2 with mAb 30 µg/ml versus without)” value of the same binder?
**A.** The value was 0.364 ratio.

**Q.** For B7, which EC50 is on record?
**A.** The EC50 was 0.156 µg/mL.

**Q.** What about the “Efficacy (ratio of bound Ang-2 with mAb 30 µg/ml versus without)” value of the same binder?
**A.** Its value is 0.403 ratio.

**Q.** How did the EC50 turn out when B8 was run?
**A.** Its EC50 is 0.0417 µg/mL.

**Q.** And the “Efficacy (ratio of bound Ang-2 with mAb 30 µg/ml versus without)” value?
**A.** Its value is 0.375 ratio.

**Q.** For B9, which EC50 is on record?
**A.** The EC50 was 0.168 µg/mL.

**Q.** What about the “Efficacy (ratio of bound Ang-2 with mAb 30 µg/ml versus without)” value of the same binder?
**A.** The value was 0.388 ratio.

What follows are binders tested against T1, human Angiopoietin-2 (assay: KinExA, KD-controlled titration; KinExA, KD-controlled titration, 5 days at ~24 C).
Procedure: For this purpose, a KinExA 3000 instrument was utilized. […] The beads were then centrifuged and washed once with blocking buffer (1×PBS, 10 mg/ml BSA), centrifuged again, and then incubated in blocking buffer for one hour at 24° C. After blocking, the beads were diluted in approximately 30 mL of HBS buffer (0.01 M Hepes, 0.15 M NaCl, pH 7.4) in a standard KinExA bead reservoir vial and placed on the instrument.
The KinExA instrument method used for the analysis of these solutions consisted of a bead packing step in which the PMMA beads were packed into a glass capillary, and the equilibrated solutions were flowed through the bead column at 0.25 mL/min for 6 min (1.5 mL) in duplicate. […] The fluorescence emission from the bead pack was measured at 670 nm with excitation at 620 nm. The resulting fluorescence measurements were converted into “% free nab binding site” versus total antigen concentration using the accompanying KinExA software package (version 1.0.3, Sapidyne, Inc.). The resulting KD-controlled titration curve was fit with the KinExA software to a 1:1 equilibrium isotherm with a drift correction factor included.

**Q.** With B2 as the binder, how does the Kd read?
**A.** The Kd was 0.0864 nM.
